Consider 7 variants from FireProtDB (doi:10.1093/oxfordjournals.jbchem.a002919).

The chains are these.
B1: 3-isopropylmalate dehydrogenase, P50455 (parent)
chain: MGFTVALIQGDGIGPEIVSKSKRILAKINELYSLPIEYIEVEAGDRALARYGEALPKDSLKIIDKADIILKGPVGESAADVVVKLRQIYDMYANIRPAKSIPGIDTKYGNVDILIVRENTEDLYKGFEHIVSDGVAVGMKIITRFASERIAKVGLNFALRRRKKVTCVHKANVMRITDGLFAEACRSVLKGKVEYSEMYVDAAAANLVRNPQMFDVIVTENVYGDILSDEASQIAGSLGIAPSANIGDKKALFEPVHGAAFDIAGKNIGNPTAFLLSVSMMYERMYELSNDDRYIKASRALENAIYLVYKERKALTPDVGGNATTDDLINEIYNKLG

Variants of B1 are the subject of the data set. The settings on record: Sulfurisphaera tokodaii (strain DSM 16993 / JCM 10545 / NBRC 100140 / 7); pH 7; Thermal; CD; Potassium phosphate 20 mM; structure 1WPW; whole UniProt chain shown.

A word on the Tm: it is the temperature at which the thermal transition is half complete.

Turning to Y282L, the Tm came out at 94.7 °C and the “change of melting temperature, mutant - wild type (higher = more stable)” value (from here on “change of melting temperature, mutant”) is -1.3 °C.

As for M91L I95L K152R G154A A259S F261P Y282L, the Tm is 96.4 °C and the “change of melting temperature, mutant” value worked out at 0.4 °C.

Take A259S F261P: the Tm came out at 97.1 °C and the “change of melting temperature, mutant” value was 1.1 °C.

As for G154A, the Tm was 97.9 °C and the “change of melting temperature, mutant” value came out at 1.9 °C.

Take K152R G154A: the Tm worked out at 97.2 °C and the “change of melting temperature, mutant” value was 1.2 °C.

Turning to K152R, the Tm worked out at 95.6 °C and the “change of melting temperature, mutant” value is -0.4 °C.

Consider M91L I95L, for which the Tm is 99.2 °C and the “change of melting temperature, mutant” value is 3.2 °C.
